Assay [1] deals with FCGR1AECDHis (monomeric extracellular domain of FcγRIA) (Homo sapiens (Human), UniProt P12314 16-292). The assay can be described thus: ELISA, coated FCGR1AECD-His, 20 ug/mL antibody.
In assay [2] the target is T1, diFCGR2AH-HisBAP (dimeric extracellular domain of FcγRIIA allotype 131H) (Homo sapiens (Human), UniProt P12318 34-215, C-terminally biotinylated).
T1 construct: dimeric, His-tagged, C-terminally biotinylated ECD; also called IIA-131H
T1 sequence: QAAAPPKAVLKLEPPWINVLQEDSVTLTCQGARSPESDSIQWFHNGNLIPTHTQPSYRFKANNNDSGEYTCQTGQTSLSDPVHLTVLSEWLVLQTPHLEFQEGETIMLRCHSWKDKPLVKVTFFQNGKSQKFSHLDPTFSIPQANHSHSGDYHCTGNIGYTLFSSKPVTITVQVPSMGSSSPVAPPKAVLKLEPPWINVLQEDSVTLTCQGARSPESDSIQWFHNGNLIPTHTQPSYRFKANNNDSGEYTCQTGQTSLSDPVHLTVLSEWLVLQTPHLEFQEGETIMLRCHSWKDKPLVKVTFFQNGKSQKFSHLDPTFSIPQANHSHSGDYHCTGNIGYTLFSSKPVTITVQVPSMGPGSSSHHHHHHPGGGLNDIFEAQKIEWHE
Nature of the assay: ELISA, captured antibody, dimeric biotinylated FcγR ECD.

The target of assay [3] is T2, diFCGR2AR-HisBAP (dimeric extracellular domain of FcγRIIA allotype 131R) (Homo sapiens (Human), UniProt P12318 36-215, C-terminally biotinylated).
T2 construct: dimeric, His-tagged, C-terminally biotinylated ECD; also called IIA-131R
T2 chain: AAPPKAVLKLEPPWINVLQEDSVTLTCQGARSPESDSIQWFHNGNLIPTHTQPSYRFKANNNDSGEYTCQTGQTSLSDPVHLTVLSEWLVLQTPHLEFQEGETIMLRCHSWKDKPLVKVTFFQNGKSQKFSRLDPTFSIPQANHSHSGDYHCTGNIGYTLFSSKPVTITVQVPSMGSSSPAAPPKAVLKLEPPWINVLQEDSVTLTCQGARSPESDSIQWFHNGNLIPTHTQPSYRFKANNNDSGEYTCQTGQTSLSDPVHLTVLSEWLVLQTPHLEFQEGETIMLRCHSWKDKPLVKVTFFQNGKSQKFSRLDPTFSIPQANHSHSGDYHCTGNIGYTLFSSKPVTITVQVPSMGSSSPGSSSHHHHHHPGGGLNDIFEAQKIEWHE
The description is as above.

Assay [4] concerns the target T3, diFCGR2B-HisBAP (dimeric extracellular domain of FcγRIIB) (Homo sapiens (Human), UniProt P31994 44-223, C-terminally biotinylated).
T3 construct: dimeric, His-tagged, C-terminally biotinylated ECD
T3 sequence: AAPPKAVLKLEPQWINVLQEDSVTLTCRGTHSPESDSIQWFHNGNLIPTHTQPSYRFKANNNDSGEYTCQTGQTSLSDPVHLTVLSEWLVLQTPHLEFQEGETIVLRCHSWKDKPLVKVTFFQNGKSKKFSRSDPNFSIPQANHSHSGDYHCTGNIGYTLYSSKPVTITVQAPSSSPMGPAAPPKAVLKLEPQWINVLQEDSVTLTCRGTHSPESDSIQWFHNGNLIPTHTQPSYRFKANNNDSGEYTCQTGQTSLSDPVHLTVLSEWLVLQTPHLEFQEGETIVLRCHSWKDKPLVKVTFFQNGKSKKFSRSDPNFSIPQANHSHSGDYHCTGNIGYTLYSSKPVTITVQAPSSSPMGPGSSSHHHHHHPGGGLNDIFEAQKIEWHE
The assay is described as above.

Assay [5] concerns the target T4, diFCGR3AF-HisBAP (dimeric extracellular domain of FcγRIIIA allotype 158F) (C-terminally biotinylated).
T4 construct: dimeric, His-tagged, C-terminally biotinylated ECD; also called IIIA-158F
The description is as above.

In assay [6] the target is T5, diFCGR3AV-HisBAP (dimeric extracellular domain of FcγRIIIA allotype 158V) (C-terminally biotinylated).
T5 construct: dimeric, His-tagged, C-terminally biotinylated ECD; also called IIIA-158V
Described as above.

Assay [7] concerns the target T1, diFCGR2AH-HisBAP (dimeric extracellular …). The assay can be described thus: FcγR ELISA, 20 ug/mL antibody.
Assay [8] deals with T2, diFCGR2AR-HisBAP (dimeric extracellular …). The assay can be described thus: FcγR ELISA, 20 ug/mL antibody. On the technique in general: ELISA stands for enzyme-linked immunosorbent assay.
The target of assay [9] is T3, diFCGR2B-HisBAP (dimeric extracellular …). The assay can be described thus: FcγR ELISA, 20 ug/mL antibody.
Assay [10] has as its target T1, diFCGR2AH-HisBAP (dimeric extracellular …). Nature of the assay: ELISA, captured antibody 20 ug/mL, dimeric biotinylated FcγR ECD.
For assay [11], the target named is T2, diFCGR2AR-HisBAP (dimeric extracellular …). Described as above.
Assay [12] concerns the target T3, diFCGR2B-HisBAP (dimeric extracellular …). The description is as above.
Assay [13] concerns the target T4, diFCGR3AF-HisBAP (dimeric extracellular …). The description is as above.
Assay [14] concerns the target T5, diFCGR3AV-HisBAP (dimeric extracellular …). The assay is described as above.
For the next assay, the target named is T6, C1q (human, UniProt P02745 23-245; P02746 28-253; P02747 29-245).
T6 construct: native C1q in 20% normal human serum, detected with rabbit anti-human C1q-FITC on antibody-opsonized Wien 133 cells; also called human C1q from normal human serum
Nature of the assay: flow cytometry of C1q on antibody-opsonized Wien 133 cells, 20% NHS on ice. Background: Flow cytometry measures light scatter and fluorescence of single cells or particles in a stream.

Where a chain is given by its changes, count along the chain named. Numbers in names are those of the source.

Chain of FCGR1AECDHis (monomeric extracellular domain of FcγRIA) (P12314 other isoform, or with tags, fused parts or gaps limits assumed): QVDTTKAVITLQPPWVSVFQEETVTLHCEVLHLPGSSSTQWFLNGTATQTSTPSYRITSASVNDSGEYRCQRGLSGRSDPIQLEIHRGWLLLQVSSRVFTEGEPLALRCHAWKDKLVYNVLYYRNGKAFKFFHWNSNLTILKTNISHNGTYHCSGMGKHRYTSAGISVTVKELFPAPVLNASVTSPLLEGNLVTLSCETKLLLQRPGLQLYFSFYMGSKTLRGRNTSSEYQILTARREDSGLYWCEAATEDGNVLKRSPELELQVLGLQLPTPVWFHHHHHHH
T6 sequence (P02745 23-245 limits assumed, chain 1 of 3): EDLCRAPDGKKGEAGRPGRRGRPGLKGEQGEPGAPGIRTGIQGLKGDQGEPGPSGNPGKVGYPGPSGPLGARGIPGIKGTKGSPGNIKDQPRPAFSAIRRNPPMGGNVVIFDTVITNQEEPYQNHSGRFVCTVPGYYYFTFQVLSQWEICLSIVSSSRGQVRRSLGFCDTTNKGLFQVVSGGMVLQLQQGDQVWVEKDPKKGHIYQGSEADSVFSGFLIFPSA
T6 sequence (P02746 28-253 limits assumed, chain 2 of 3): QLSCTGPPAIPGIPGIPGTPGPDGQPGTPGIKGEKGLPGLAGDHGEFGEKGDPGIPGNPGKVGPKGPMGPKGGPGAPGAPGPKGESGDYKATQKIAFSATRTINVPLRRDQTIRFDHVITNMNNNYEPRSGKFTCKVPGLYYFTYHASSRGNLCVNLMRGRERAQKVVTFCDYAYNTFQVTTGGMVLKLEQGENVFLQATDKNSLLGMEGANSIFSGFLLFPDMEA
T6 sequence (P02747 29-245 limits assumed, chain 3 of 3): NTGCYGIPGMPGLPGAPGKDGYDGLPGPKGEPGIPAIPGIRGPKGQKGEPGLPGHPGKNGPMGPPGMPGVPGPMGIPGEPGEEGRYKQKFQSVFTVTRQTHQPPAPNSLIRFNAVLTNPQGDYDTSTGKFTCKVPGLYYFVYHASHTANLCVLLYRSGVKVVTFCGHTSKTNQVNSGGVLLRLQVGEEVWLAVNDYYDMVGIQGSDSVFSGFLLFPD

B1: IgG1-CAMPATH-1H-E430G-K439E-G236R (antibody)
heavy: QVQLQESGPGLVRPSQTLSLTCTVSGFTFTDFYMNWVRQPPGRGLEWIGFIRDKAKGYTTEYNPSVKGRVTMLVDTSKNQFSLRLSSVTAADTAVYYCAREGHTAAPFDYWGQGSLVTVSSASTKGPSVFPLAPSSKSTSGGTAALGCLVKDYFPEPVTVSWNSGALTSGVHTFPAVLQSSGLYSLSSVVTVPSSSLGTQTYICNVNHKPSNTKVDKRVEPKSCDKTHTCPPCPAPELLRGPSVFLFPPKPKDTLMISRTPEVTCVVVDVSHEDPEVKFNWYVDGVEVHNAKTKPREEQYNSTYRVVSVLTVLHQDWLNGKEYKCKVSNKALPAPIEKTISKAKGQPREPQVYTLPPSREEMTKNQVSLTCLVKGFYPSDIAVEWESNGQPENNYKTTPPVLDSDGSFFLYSKLTVDKSRWQQGNVFSCSVMHGALHNHYTQESLSLSPGK
light: not shown
notes: also called IgG1-CAMPATH-1H-G236R-E430G-K439E; IgG1-CAMPATH-E430G-K439E-G236R
On to B1, for which the binding result in assay [1] is listed as “binds”; in assay [2] it was “no binding (tested: 20 µg/mL)”; in assay [3] it was “no binding (tested: 20 µg/mL)”; in assay [4], “no binding (tested: 20 µg/mL)”; in assay [5], “no binding (tested: 20 µg/mL)”; in assay [6], “no binding (tested: 20 µg/mL)”.

B2: IgG1-CAMPATH-1H-E430G-K439E-G237Q (antibody)
heavy: B1 heavy with R240G, G241Q
light: not shown
notes: also called IgG1-CD52-Campath-G237Q-E430G-K439E
Consider B2, for which the binding result in assay [1] is listed as “binds”.

B3: IgG1-CAMPATH-1H-E430G-K439E-K322A (antibody)
heavy: B1 heavy with R240G, K326A
light: not shown
notes: also called IgG1-CAMPATH-1H-K322A-E430G-K439E
With B3, the binding result in [7], in assay [8], in assay [9] and in [1] was “binds” each time.

B4: IgG1-CAMPATH-1H-E430G-K439E-G237T (antibody)
heavy: B1 heavy with R240G, G241T
light: not shown
notes: also called IgG1-CD52-Campath-G237T-E430G-K439E
With B4, the binding result in assay [1] is “binds”; in assay [2], “no binding (tested: 20 µg/mL)”; in [3], “no binding (tested: 20 µg/mL)”; in assay [4] it was “no binding (tested: 20 µg/mL)”; in assay [5] it was “no binding (tested: 20 µg/mL)”; in assay [6], “no binding (tested: 20 µg/mL)”.

B5: IgG1-CAMPATH-1H-E430G-K439E-G237R (antibody)
heavy: B1 heavy with R240G, G241R
light: not shown
notes: also called IgG1-CD52-Campath-G237R-E430G-K439E
As for B5, in assay [1], the binding result is given as “binds”.

B6: IgG1-11B8-E430G-S440K-E333S (antibody)
heavy: EVQLVQSGGGLVHPGGSLRLSCTGSGFTFSYHAMHWVRQAPGKGLEWVSIIGTGGVTYYADSVKGRFTISRDNVKNSLYLQMNSLRAEDMAVYYCARDYYGAGSFYDGLYGMDVWGQGTTVTVSSASTKGPSVFPLAPSSKSTSGGTAALGCLVKDYFPEPVTVSWNSGALTSGVHTFPAVLQSSGLYSLSSVVTVPSSSLGTQTYICNVNHKPSNTKVDKRVEPKSCDKTHTCPPCPAPELLGGPSVFLFPPKPKDTLMISRTPEVTCVVVDVSHEDPEVKFNWYVDGVEVHNAKTKPREEQYNSTYRVVSVLTVLHQDWLNGKEYKCKVSNKALPAPISKTISKAKGQPREPQVYTLPPSREEMTKNQVSLTCLVKGFYPSDIAVEWESNGQPENNYKTTPPVLDSDGSFFLYSKLTVDKSRWQQGNVFSCSVMHGALHNHYTQKKLSLSPGK
light: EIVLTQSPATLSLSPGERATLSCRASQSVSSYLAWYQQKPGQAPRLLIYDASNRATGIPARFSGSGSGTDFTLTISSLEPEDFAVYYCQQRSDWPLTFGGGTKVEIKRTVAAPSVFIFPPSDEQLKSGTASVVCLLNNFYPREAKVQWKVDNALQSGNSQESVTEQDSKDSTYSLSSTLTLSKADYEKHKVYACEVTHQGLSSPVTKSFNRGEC
notes: also called IgG1-11B8-E333S-E430G-S440K
With B6, the “reduction of FcγR binding against IgG1-11B8-E430G-S440K” value was roughly 50% in [10]; roughly 50% in [11]; roughly 50% in assay [12]; roughly 20% in assay [13]; roughly 20% in [14]. In addition, the binding result with C1q is “binds”.

B7: IgG1-11B8-E430G-S440K-K326A (antibody)
heavy: B6 heavy with K334A, S341E
light: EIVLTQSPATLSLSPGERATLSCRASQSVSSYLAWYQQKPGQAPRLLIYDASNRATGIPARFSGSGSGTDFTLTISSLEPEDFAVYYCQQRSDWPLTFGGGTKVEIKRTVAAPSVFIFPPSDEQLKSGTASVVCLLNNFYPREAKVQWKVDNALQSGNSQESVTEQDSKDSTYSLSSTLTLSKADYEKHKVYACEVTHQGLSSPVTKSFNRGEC
notes: also called IgG1-11B8-K326A-E430G-S440K
For the molecule B7, the binding result (in assay [10]; in assay [11]; in assay [12]; with C1q) was “binds” in each case.
